Ends that are not written are not given here. * marks the point of attachment. Palmitoyl = CCCCCCCCCCCCCCCC(=O)*
B1: G87 (peptide)
peptide: HSQGTFTSDYAKYLDARRAK(Palmitoyl)EFIAWLVKGR-NH2
modifications: N-terminus assumed
SMILES: CCCCCCCCCCCCCCCC(=O)NCCCC[C@H](NC(=O)[C@H](C)NC(=O)[C@H](CCCNC(=N)N)NC(=O)[C@H](CCCNC(=N)N)NC(=O)[C@H](C)NC(=O)[C@H](CC(=O)O)NC(=O)[C@H](CC(C)C)NC(=O)[C@H](Cc1ccc(O)cc1)NC(=O)[C@H](CCCCN)NC(=O)[C@H](C)NC(=O)[C@H](Cc1ccc(O)cc1)NC(=O)[C@H](CC(=O)O)NC(=O)[C@H](CO)NC(=O)[C@@H](NC(=O)[C@H](Cc1ccccc1)NC(=O)[C@@H](NC(=O)CNC(=O)[C@H](CCC(N)=O)NC(=O)[C@H](CO)NC(=O)[C@@H](N)Cc1c[nH]cn1)[C@@H](C)O)[C@@H](C)O)C(=O)N[C@@H](CCC(=O)O)C(=O)N[C@@H](Cc1ccccc1)C(=O)N[C@H](C(=O)N[C@@H](C)C(=O)N[C@@H](Cc1c[nH]c2ccccc12)C(=O)N[C@@H](CC(C)C)C(=O)N[C@H](C(=O)N[C@@H](CCCCN)C(=O)NCC(=O)N[C@@H](CCCNC(=N)N)C(N)=O)C(C)C)[C@@H](C)CC

biological target: T1, GLP-1 receptor present in the plasma membranes isolated from RINm5F cells (UniProt P32301 22-463, limits assumed); assay: 125I-GLP-1 displacement, RINm5F plasma membranes
T1 construct: whole, on cells
T1 sequence (looked up): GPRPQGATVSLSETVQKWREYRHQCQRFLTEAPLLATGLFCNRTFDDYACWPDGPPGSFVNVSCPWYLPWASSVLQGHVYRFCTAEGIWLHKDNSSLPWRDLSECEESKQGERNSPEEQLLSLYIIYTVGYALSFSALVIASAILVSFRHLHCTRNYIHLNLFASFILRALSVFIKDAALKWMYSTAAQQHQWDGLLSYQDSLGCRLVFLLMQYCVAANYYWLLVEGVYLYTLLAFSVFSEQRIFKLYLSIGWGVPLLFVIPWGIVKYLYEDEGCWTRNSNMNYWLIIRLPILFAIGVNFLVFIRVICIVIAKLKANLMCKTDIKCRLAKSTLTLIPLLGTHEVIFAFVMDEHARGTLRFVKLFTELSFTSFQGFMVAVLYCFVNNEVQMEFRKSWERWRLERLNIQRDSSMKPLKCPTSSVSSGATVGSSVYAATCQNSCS
Protocol: Competitive binding of some polypeptides of the invention to RINm5F cell plasma membranes was measured as follows. Ninety-six-well GF/C filtration plates (Millipore, Bedford, Ma.) were blocked with 0.3% PEI for at least one hour and washed twice with binding buffer consisting of 20 mM Tris, 2 mM EDTA, pH 7.5, 1 mg/ml BSA, and 1 mg/ml bacitracin. […] The plates were dried, scintillant was added to each well, and cpm per well determined using a Wallac Microbeta counter.

| Binder | IC50 [µM] |
| --- | --- |
| B1 | 0.0986 |
| HSQGTFTSDYAKYLDARRAKEFIAWLVKGR-NH2 [G27] | 0.0022 |
| HSQGTFTSDYARYLDARRAKEFIAWLVKGR-NH2 [G55] | 0.0098 |
| HSQGTFTSDYAKYLDAARAKEFIAWLVKGR-NH2 [G57] | 0.0147 |
| HSQGTFTSDYAAYLDARRAKEFIAWLVKGR-NH2 [G56] | 0.0066 |
| HSQGTFTSDYARYLDARRAREFIAWLVRGRGK [G85] | 0.0015 |

biological target: T1, GLP-1 receptor present in the plasma …; assay: cell-based or functional assay

| Binder | % GLP1 max, cAMP SPA in RINm5F cells [%] | Relative Potency (%), cAMP SPA in RINm5F cells [%] |
| --- | --- | --- |
| B1 | 100 | 6.1 |
| HSQGTFTSDYAKYLDARRAKEFIAWLVKGR-NH2 [G27] | 98.1 | 13.4 |
| HSQGTFTSDYARYLDARRAKEFIAWLVKGR-NH2 [G55] | 116 | 18.6 |
| HSQGTFTSDYAKYLDAARAKEFIAWLVKGR-NH2 [G57] | 132 | 18.3 |
| HSQGTFTSDYAAYLDARRAKEFIAWLVKGR-NH2 [G56] | 115 | 37.2 |
| HSQGTFTSDYARYLDARRAREFIAWLVRGRGK [G85] | 95.8 | 64.5 |

biological target: T2, glucagon receptor present in the plasma membranes isolated from rat liver (rat, UniProt P30082 27-485); assay: cell-based or functional assay
T2 sequence (P30082 27-485): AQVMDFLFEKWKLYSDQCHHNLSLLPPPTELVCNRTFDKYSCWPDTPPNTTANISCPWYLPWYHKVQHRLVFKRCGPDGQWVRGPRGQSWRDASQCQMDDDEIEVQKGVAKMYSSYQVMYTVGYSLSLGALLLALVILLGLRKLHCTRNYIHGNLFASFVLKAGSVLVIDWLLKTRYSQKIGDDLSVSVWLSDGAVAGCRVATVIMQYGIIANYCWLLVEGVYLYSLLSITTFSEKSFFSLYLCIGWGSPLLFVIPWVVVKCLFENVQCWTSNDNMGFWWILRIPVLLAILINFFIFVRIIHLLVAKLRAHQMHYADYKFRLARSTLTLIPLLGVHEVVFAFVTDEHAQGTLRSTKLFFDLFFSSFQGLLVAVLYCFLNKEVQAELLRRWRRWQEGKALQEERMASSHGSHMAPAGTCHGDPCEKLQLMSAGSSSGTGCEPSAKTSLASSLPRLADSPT

| Binder | % Inhib glucagon stimulated cAMP increase (10 uM peptide, rat hepatocytes) [%] |
| --- | --- |
| B1 | 59 |
| HSQGTFTSDYAKYLDARRAKEFIAWLVKGR-NH2 [G27] | 31 |
| HSQGTFTSDYARYLDARRAKEFIAWLVKGR-NH2 [G55] | 32.1 |
| HSQGTFTSDYAKYLDAARAKEFIAWLVKGR-NH2 [G57] | 18.4 |
| HSQGTFTSDYAAYLDARRAKEFIAWLVKGR-NH2 [G56] | 28.6 |
| HSQGTFTSDYARYLDARRAREFIAWLVRGRGK [G85] | 27.9 |

biological target: T2, glucagon receptor present in the plasma …; assay: 125I-glucagon displacement, rat liver plasma membranes
Protocol: Competitive binding of some polypeptides of the invention to rat liver plasma membranes was measured as follows. Ninety-six-well GF/C filtration plates (Millipore, Bedford, Ma.) were blocked with 0.1% PEI for at least one hour and washed twice with binding buffer consisting of 20 mM Tris, 2 mM EDTA, pH 7.5, 1 mg/ml BSA, and 1 mg/ml bacitracin. […] The plates were dried, scintillant was added to each well, and cpm per well determined using a Wallac Microbeta counter.

| Binder | IC50 [µM] |
| --- | --- |
| B1 | 0.62 |
| HSQGTFTSDYAKYLDARRAKEFIAWLVKGR-NH2 [G27] | 0.0693 |
| HSQGTFTSDYARYLDARRAKEFIAWLVKGR-NH2 [G55] | 0.139 |
| HSQGTFTSDYAKYLDAARAKEFIAWLVKGR-NH2 [G57] | 0.177 |
| HSQGTFTSDYAAYLDARRAKEFIAWLVKGR-NH2 [G56] | 0.125 |
| HSQGTFTSDYARYLDARRAREFIAWLVRGRGK [G85] | 0.0161 |
